This note sets out measurements from article PMC5347741.

The nature of the series: immunohistochemistry, nude mouse xenograft. Particulars: glycan changed form; control: untransfected CAOV3 cells.

B1: CD147: FUT1 transfection (CA-FUT1) (protein)
parent chain: MAAALFVLLGFALLGTHGASGAAGTVFTTVEDLGSKILLTCSLNDSATEVTGHRWLKGGVVLKEDALPGQKTEFKVDSDDQWGEYSCVFLPEPMGTANIQLHGPPRVKAVKSSEHINEGETAMLVCKSESVPPVTDWAWYKITDSEDKALMNGSESRFFVSSSQGRSELHIENLNMEADPGQYRCNGTSSKGSDQAIITLRVRSHLAALWPFLGIVAEVLVLVTIIFIYEKRRKPEDVLDDDDAGSAPLKSSGQHQNDKGKNVRQRNSS
In the case of B1, the expression_or_secretion entry is recorded as “increases”.
